Data taken from patent US20240383950A1, “RECOMBINANT GLYCAN BINDING PROTEINS AND ITS USE” (UNICHEM LABORATORIES LIMITED, priority 2021, published 2024).

How the values were obtained:
[1] = tested on: Blood cancer cellline Jurkat E6; experiment: MTS-PMS cytotoxicity bioassay, Jurkat E6; conditions: 80 μg/ml; 5000 cells/well
Text: 5000 cells/well were used for testing.
(§5) The drug Doxorubicin was used as system suitability (SST) reference.

[2] = tested on: bladder cancer cells (T24); experiment: Colocalization study in cell organelles by confocal microscopy; format: cell-based; conditions: FITC-labelled, 100 μg/mL, 2 h, 37° C.
[3] = Glycan binding study, N-Glycan array
[4] = Glycan binding study, O-Glycan array, core 2; conditions: O-Glycan array containing 94 glycans
[5] = tested on: Ovarian Cancer cell line PA-1; experiment: MTS-PMS cytotoxicity bioassay, PA-1; conditions: 80 μg/ml; 5000 cells/well
Text: 5000 cells/well were used for testing.
as §5

[6] = tested on: Blood Cancer Cellline MOLT-3; experiment: MTS-PMS cytotoxicity bioassay, MOLT-3; conditions: 80 μg/ml; 5000 cells/well
Text: 5000 cells/well were used for testing.
as §5

[7] = Stability of expressed protein in TBS buffer; format: physicochemical; conditions: for % Single max impurity / % Total impurity / % purity: 10 mM TBS buffer pH 7.8, 2-8° C.
Experimental: Stability of expressed protein i.e., SEQ ID NO. 3 was evaluated for 2 weeks using 10 mM TBS buffer with pH 7.8 at 2-8° C.

pI of purified protein = format: physicochemical
Text: The molecular mass and pI of purified protein of SEQ ID NO. 3 and SEQ ID NO.

[8] = tested on: human urinary Bladder cancer cell line (T-24); experiment: Cytotoxicity bioassay of conjugate, T-24; format: cell-based; conditions: 72 hours; Cell titer glow
Experimental: (§1) Bioassay—Cytotoxicity effect Conjugate of Example 8 against ovarian cancer cell line (PA-1) and human urinary Bladder cancer cell line (T-24) was assayed.
(§2) 5,000 cells/well were plated and incubated at 37° C. overnight.
(§3) Conjugates/vehicle control dilutions were made in respective media and added to cells. Volume added: 50 uL to each well. […] Each concentration was analysed in triplicates. Media-only wells was used as a control to calculate percent viability. Cell titer glow reagent (volume: 50 uL) was added to each well, the plate was shaken for 5 mins and the luminescence was recorded. Drug Treatment Time: 72 hours. Percent viability was calculated by dividing the luminescence signal obtained for each treated well by the untreated well (media-only control) and multiplying by 100.
(§4) Data was next transformed using X=Log(x) and then analysed with nonlinear regression (curve fit), Dose Response inhibition−log (inhibitor) vs response (3 parameters) using PRISM software to determine the IC50 value.

[9] = tested on: ovarian cancer cell line (PA-1); experiment: Cytotoxicity bioassay of conjugate, PA-1; format: cell-based; conditions: 72 hours; Cell titer glow
Experimental: as §1, §2, §3, §4

B1: SEQ ID NO. 2: recombinant glycan binding protein, variant of Sclerotium Rolfsii Lectin, disclosed in Indian Patent Application 350/MUM/2009 (protein)
chain: TYKITVRVYQTNPDAFFHPVEKTVWKYANGGTWTITDDQHVLTMGGSGTSGTLRFHADNGESFTATFGVHNYKRWCDIVTNLAADETGMVINQQYYSQKNREEARERQLSNYQVKNAKGRNFQIVYTEAEGNDLHANLIIG
[1]
  % Cytotoxicity on Cell-lines Jurkat E6: 61%
O-Glycan array containing 94 glycans
  Estimated Kd for T antigen: 0.319 µg/mL
O-Glycan array, T-antigen and its extended core structures
  binding profile to O-glycans: strong and broad binding profile to O-glycans
[2]
  colocalization in cell organelles: colocalized in Mitochondria, Endoplasmic reticulum, Golgi bodies and Plasma membrane
[3]
  binding to N-glycans: specific binding to N-glycans containing GlcNac at the non-reducing end
[4]
  Estimated Kd for core 2: 0.212 µg/mL
[5]
  % Cytotoxicity on Cell-lines PA-1: 81%
[6]
  % Cytotoxicity on Cell-lines MOLT-3: 46%

B2: SEQ ID NO. 3: SEQ ID NO. 2 re-engineered: Serine at 1st position, Glycine at 76th position, Cysteine added at carboxy terminal end (protein)
chain: SYKITVRVYQTNPDAFFHPVEKTVWKYANGGTWTITDDQHVLTMGGSGTSGTLRFHADNGESFTATFGVHNYKRWGDIVTNLAADETGMVINQQYYSQKNREEARERQLSNYQVKNAKGRNFQIVYTEAEGNDLHANLIIGC
[7]; 0 Week
  % Single max impurity: 1.31%
  % Total impurity: 1.95%
  % purity: 98.05%
[7]; 1 Week
  % Single max impurity: 0.98%
  % Total impurity: 2.66%
  % purity: 97.34%
[7]; 2 Week
  % Single max impurity: 0.86%
  % Total impurity: 2.91%
  % purity: 97.09%
[7]; 2 weeks, 10 mM TBS buffer with pH 7.8 at 2-8° C.
  stability: stable
[1]
  % Cytotoxicity on Cell-lines Jurkat E6: 68%
pI of purified protein
  pI: 6.49
[5]
  % Cytotoxicity on Cell-lines PA-1: 82%
[6]
  % Cytotoxicity on Cell-lines MOLT-3: 43%

B3: Conjugate of Example 8: Protein of SEQ ID NO. 3 conjugated to cytotoxic drug MMAE using MC-Val-Cit-PAB-MMAE; DAR value 1.0 (conjugate)
chain: SYKITVRVYQTNPDAFFHPVEKTVWKYANGGTWTITDDQHVLTMGGSGTSGTLRFHADNGESFTATFGVHNYKRWGDIVTNLAADETGMVINQQYYSQKNREEARERQLSNYQVKNAKGRNFQIVYTEAEGNDLHANLIIGC
modifications: MC-Val-Cit-PAB-MMAE conjugate, DAR 1.0
notes: DAR value 1.0
[8]
  IC50: 325 nM
[9]
  IC50: 17.7 nM

B4: SEQ ID NO. 4: SEQ ID NO. 2 re-engineered: Serine at 1st, Glycine at 76th, Serine added at 142nd and Cysteine at 143rd position (protein)
chain: SYKITVRVYQTNPDAFFHPVEKTVWKYANGGTWTITDDQHVLTMGGSGTSGTLRFHADNGESFTATFGVHNYKRWGDIVTNLAADETGMVINQQYYSQKNREEARERQLSNYQVKNAKGRNFQIVYTEAEGNDLHANLIIGSC
pI of purified protein
  pI: 6.49
